Earlier results on one substance are cited in article PMC7600996.

For this data set, the target named is RseA (Escherichia coli) (UniProt P0AFX7).
Chain of UniProt P0AFX7 (P0AFX7 whole entry): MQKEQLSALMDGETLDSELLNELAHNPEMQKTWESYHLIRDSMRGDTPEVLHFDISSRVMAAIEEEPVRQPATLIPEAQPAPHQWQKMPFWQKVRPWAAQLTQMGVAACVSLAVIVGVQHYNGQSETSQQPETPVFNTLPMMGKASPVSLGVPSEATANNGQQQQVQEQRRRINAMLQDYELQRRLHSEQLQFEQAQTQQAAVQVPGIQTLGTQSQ

As for RpoE (sigma E) (from UniProt P0AGB6), the Kd (commonly the concentration at which binding is half-saturated) is 0.2 nM.
